In US20250163186A1 (PHYLAXIS BIOSCIENCE, published 2025):

Target: T1, CH2-4 constant domains of human IgE linked to a transmembrane protein, on 293 cells (human, UniProt P01854-1 104-428)
T1 construct: domain: CH2-4 constant domains; also called human IgE-expressing 293 cells
Assay: flow cytometry, 293 cells expressing human IgE CH2-4
Experimental: (§1) First, 25 μg of DNA was added to Opti-MEM Reduced Serum Medium (Gibco) mixed with 75 μL of 40 kDa Polyethylenimine (PEI) for a final concentration of 1 μg DNA and 2.5 μg PEI per mL of culture volume. The plasmid DNA was allowed to pre-complex with PEI for 15 minutes before transferring the mixture to 25 mL of 293 cells in a shake flask at a density of 2×10⁶ cells/mL. […] Next, 50 μL of cells were transferred to wells of a round-bottom 96-well assay plate for a total of 50,000 293 cells per well. In a separate 96-well plate, monomeric VHH-hIgG1-Fc fusion proteins were titrated 1:5 in a 8-point dilution series starting at 1 μM in FACS Buffer with the 8th point containing no antibody. 50 μL from each antibody dilution was added to wells containing 50 μL of FACS Buffer with transfected 293 cells which produced a 2-fold dilution of the antibody concentrations from the dilution series resulting in a 500 nM final, starting concentration of the test article titration. The test articles and 293 cells were incubated together at 4° C. for 30 minutes. Next, the 96-well plates were centrifuged at 400×g for 5 minutes and the FACS buffer containing unbound antibody was decanted. Cells were washed 1× with 150 μL 4° C. FACS Buffer. […] The cells were incubated with the fluorophore conjugated detection antibody at 4° C. for 20 minutes. 293 cells were then centrifuged and washed once as described above. Cell pellets were resuspended in 30 μL FACS Buffer and analyzed on an iQue Screener Plus flow cytometer (Sartorius, IntelliCyt) with a 1 second sip time and 1 second void time. Mean fluorescent intensity was calculated using iQue onboard software gating on GFP+ or citrine+ cells.

T1 sequence (P01854 other isoform, or with tags, fused parts or gaps): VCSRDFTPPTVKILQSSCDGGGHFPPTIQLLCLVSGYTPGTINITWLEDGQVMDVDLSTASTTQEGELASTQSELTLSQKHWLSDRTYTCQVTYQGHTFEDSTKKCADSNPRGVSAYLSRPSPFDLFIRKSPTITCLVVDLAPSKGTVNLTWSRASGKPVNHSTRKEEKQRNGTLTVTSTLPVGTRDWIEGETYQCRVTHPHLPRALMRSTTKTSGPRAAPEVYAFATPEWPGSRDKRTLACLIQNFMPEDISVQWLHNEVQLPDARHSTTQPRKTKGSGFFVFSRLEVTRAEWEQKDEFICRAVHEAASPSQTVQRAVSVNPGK

| Binder | Bmax [MFI] | Kd [nM] |
| --- | --- | --- |
| hzB10v27-NNT (Fc fusion, monomeric) VHH-Fc: EVQLLESGGGEVQPGGSLRLSCVASGLTFSSYNMGWLRQAPGKEREFVGLSGSSSTSTYYAESVKGRFTISRDNSKNTVYLQMNSLRAEDTAVYYCAARRLLSTYWSDRSWDFWGQGTQVTVEPGGPSVFLFPPKPKDTLMISRTPEVTCVVVDVSHEDPEVKFNWYVDGVEVHNAKTKPREEQYNSTYRVVSVLTVLHQDWLNGKEYKCKVSNKALPAPIEKTISKAKGQPREPQVYTLPPSRDELTKNQVNLTCLVKGFYPSDIAVEWESNGQPENNYKTTPPVLDSDGSFFLNSTLTVDKSRWQQGNVFSCSVMHEALHNHYTQKSLSLSPGK | 753000 | 1.16 |
| hzB10v28-NNT (Fc fusion, monomeric) VHH-Fc: EVQLLESGGGEVQPGGSLRLSCVASGLTFSSYNMGWLRQAPGKEREFVGLSGSSSTSTYYAESVKGRFTISRDNSKNTVYLQMSSLRAEDTAVYYCAARRLLSTYWSDRSWDFWGQGTQVTVEPGGPSVFLFPPKPKDTLMISRTPEVTCVVVDVSHEDPEVKFNWYVDGVEVHNAKTKPREEQYNSTYRVVSVLTVLHQDWLNGKEYKCKVSNKALPAPIEKTISKAKGQPREPQVYTLPPSRDELTKNQVNLTCLVKGFYPSDIAVEWESNGQPENNYKTTPPVLDSDGSFFLNSTLTVDKSRWQQGNVFSCSVMHEALHNHYTQKSLSLSPGK | 1.12e+08 | 7070 |

Second part, the binder after the results:

| Bmax [MFI] | Kd [nM] | Binder |
| --- | --- | --- |
| 706000 | 1.33 | hzB10v32-NNT (Fc fusion, monomeric) VHH-Fc: EVQLLESGGGEVQPGGSLRLSCVASGLTFSSYNMGWVRQAPGKEREFVGLSGSSSTSTYYAESVKGRFTISRDNSKNTVYLQMNSLRAEDTAVYYCAARRLLSTYWSDRSWDFWGQGTQVTVEPGGPSVFLFPPKPKDTLMISRTPEVTCVVVDVSHEDPEVKFNWYVDGVEVHNAKTKPREEQYNSTYRVVSVLTVLHQDWLNGKEYKCKVSNKALPAPIEKTISKAKGQPREPQVYTLPPSRDELTKNQVNLTCLVKGFYPSDIAVEWESNGQPENNYKTTPPVLDSDGSFFLNSTLTVDKSRWQQGNVFSCSVMHEALHNHYTQKSLSLSPGK |
| 617000 | 1.94 | hzB10v33-NNT (Fc fusion, monomeric) VHH-Fc: EVQLLESGGGEVQPGGSLRLSCVASGLTFSSYNMGWLRQAPGKEREFVSLSGSSSTSTYYAESVKGRFTISRDNSKNTVYLQMNSLRAEDTAVYYCAARRLLSTYWSDRSWDFWGQGTQVTVEPGGPSVFLFPPKPKDTLMISRTPEVTCVVVDVSHEDPEVKFNWYVDGVEVHNAKTKPREEQYNSTYRVVSVLTVLHQDWLNGKEYKCKVSNKALPAPIEKTISKAKGQPREPQVYTLPPSRDELTKNQVNLTCLVKGFYPSDIAVEWESNGQPENNYKTTPPVLDSDGSFFLNSTLTVDKSRWQQGNVFSCSVMHEALHNHYTQKSLSLSPGK |
| 375000 | 0.55 | hzB10v34-NNT (Fc fusion, monomeric) VHH-Fc: EVQLLESGGGEVQPGGSLRLSCVASGLTFSSYNMGWVRQAPGKEREFVSLSGSSSTSTYYAESVKGRFTISRDNSKNTVYLQMNSLRAEDTAVYYCAARRLLSTYWSDRSWDFWGQGTQVTVEPGGPSVFLFPPKPKDTLMISRTPEVTCVVVDVSHEDPEVKFNWYVDGVEVHNAKTKPREEQYNSTYRVVSVLTVLHQDWLNGKEYKCKVSNKALPAPIEKTISKAKGQPREPQVYTLPPSRDELTKNQVNLTCLVKGFYPSDIAVEWESNGQPENNYKTTPPVLDSDGSFFLNSTLTVDKSRWQQGNVFSCSVMHEALHNHYTQKSLSLSPGK |
| 575000 | 0.978 | hzB10v31-NNT (Fc fusion, monomeric) VHH-Fc: EVQLLESGGGEVQPGGSLRLSCVASGLTFSSYNMGWLRQAPGKEREFVGLSGSSSTSTYYAESVKGRFTISRDNSKNTVYLQMNTLRAEDTAVYYCAARRLLSTYWSDRSWDFWGQGTQVTVEPGGPSVFLFPPKPKDTLMISRTPEVTCVVVDVSHEDPEVKFNWYVDGVEVHNAKTKPREEQYNSTYRVVSVLTVLHQDWLNGKEYKCKVSNKALPAPIEKTISKAKGQPREPQVYTLPPSRDELTKNQVNLTCLVKGFYPSDIAVEWESNGQPENNYKTTPPVLDSDGSFFLNSTLTVDKSRWQQGNVFSCSVMHEALHNHYTQKSLSLSPGK |
| 605000 | 2.31 | hzB10v29-NNT (Fc fusion, monomeric) VHH-Fc: EVQLLESGGGEVQPGGSLRLSCVASGLTFSSYNMGWLRQAPGKEREFVGLSGSSSTSTYYAESVKGRFTISRDNSKNTVYLQMQSLRAEDTAVYYCAARRLLSTYWSDRSWDFWGQGTQVTVEPGGPSVFLFPPKPKDTLMISRTPEVTCVVVDVSHEDPEVKFNWYVDGVEVHNAKTKPREEQYNSTYRVVSVLTVLHQDWLNGKEYKCKVSNKALPAPIEKTISKAKGQPREPQVYTLPPSRDELTKNQVNLTCLVKGFYPSDIAVEWESNGQPENNYKTTPPVLDSDGSFFLNSTLTVDKSRWQQGNVFSCSVMHEALHNHYTQKSLSLSPGK |

Target: T1, CH2-4 constant domains of human IgE …
Assay: as above
Remark: another data set of the same source
Experimental: as §1

| Bmax [MFI] | Kd [nM] | Binder |
| --- | --- | --- |
| 2.75e+06 | 2.74 | hzB10v8-NNT (Fc fusion, monomeric) VHH-Fc: EVQLVQSGGELVQAGGSLRLSCVASGLTFSSYNMGWLRQAPGKEREFVGISGSSSTSTYYADSVKGRFTISRDNSKNTVYLQMNSLKPEDTAVYYCAARRMLSTYWSDRSWDFWGQGTQVTVKPGGPSVFLFPPKPKDTLMISRTPEVTCVVVDVSHEDPEVKFNWYVDGVEVHNAKTKPREEQYNSTYRVVSVLTVLHQDWLNGKEYKCKVSNKALPAPIEKTISKAKGQPREPQVYTLPPSRDELTKNQVNLTCLVKGFYPSDIAVEWESNGQPENNYKTTPPVLDSDGSFFLNSTLTVDKSRWQQGNVFSCSVMHEALHNHYTQKSLSLSPGK |
| 2.83e+06 | 2.82 | hzB10v9-NNT (Fc fusion, monomeric) VHH-Fc: EVQLVQSGGELVQAGGSLRLSCVASGLTFSSYNMGWLRQAPGKEREFVGVSGSSSTSTYYADSVKGRFTISRDNSKNTVYLQMNSLKPEDTAVYYCAARRMLSTYWSDRSWDFWGQGTQVTVKPGGPSVFLFPPKPKDTLMISRTPEVTCVVVDVSHEDPEVKFNWYVDGVEVHNAKTKPREEQYNSTYRVVSVLTVLHQDWLNGKEYKCKVSNKALPAPIEKTISKAKGQPREPQVYTLPPSRDELTKNQVNLTCLVKGFYPSDIAVEWESNGQPENNYKTTPPVLDSDGSFFLNSTLTVDKSRWQQGNVFSCSVMHEALHNHYTQKSLSLSPGK |
| 3.41e+06 | 15.6 | hzB10v11-NNT (Fc fusion, monomeric) VHH-Fc: EVQLVQSGGELVQAGGSLRLSCVASGLTFSSYNMGWLRQAPGKEREFVGMSGSSSTSTYYADSVKGRFTISRDNSKNTVYLQMNSLKPEDTAVYYCAARRILSTYWSDRSWDFWGQGTQVTVKPGGPSVFLFPPKPKDTLMISRTPEVTCVVVDVSHEDPEVKFNWYVDGVEVHNAKTKPREEQYNSTYRVVSVLTVLHQDWLNGKEYKCKVSNKALPAPIEKTISKAKGQPREPQVYTLPPSRDELTKNQVNLTCLVKGFYPSDIAVEWESNGQPENNYKTTPPVLDSDGSFFLNSTLTVDKSRWQQGNVFSCSVMHEALHNHYTQKSLSLSPGK |
| 2.82e+06 | 3.49 | hzB10v13-NNT (Fc fusion, monomeric) VHH-Fc: EVQLVQSGGELVQAGGSLRLSCVASGLTFSSYNMGWLRQAPGKEREFVGMSGSSSTSTYYAESVKGRFTISRDNAKNTVYLQMNSLKPEDTAVYYCAARRMLSTYWSDRSWDFWGQGTQVTAKPGGPSVFLFPPKPKDTLMISRTPEVTCVVVDVSHEDPEVKFNWYVDGVEVHNAKTKPREEQYNSTYRVVSVLTVLHQDWLNGKEYKCKVSNKALPAPIEKTISKAKGQPREPQVYTLPPSRDELTKNQVNLTCLVKGFYPSDIAVEWESNGQPENNYKTTPPVLDSDGSFFLNSTLTVDKSRWQQGNVFSCSVMHEALHNHYTQKSLSLSPGK |
| 2.76e+06 | 1.19 | hzB10v10-NNT (Fc fusion, monomeric) VHH-Fc: EVQLVQSGGELVQAGGSLRLSCVASGLTFSSYNMGWLRQAPGKEREFVGMSGSSSTSTYYADSVKGRFTISRDNSKNTVYLQMNSLKPEDTAVYYCAARRLLSTYWSDRSWDFWGQGTQVTAKPGGPSVFLFPPKPKDTLMISRTPEVTCVVVDVSHEDPEVKFNWYVDGVEVHNAKTKPREEQYNSTYRVVSVLTVLHQDWLNGKEYKCKVSNKALPAPIEKTISKAKGQPREPQVYTLPPSRDELTKNQVNLTCLVKGFYPSDIAVEWESNGQPENNYKTTPPVLDSDGSFFLNSTLTVDKSRWQQGNVFSCSVMHEALHNHYTQKSLSLSPGK |
| 2.72e+06 | 2.37 | hzB10v12-NNT (Fc fusion, monomeric) VHH-Fc: EVQLVQSGGELVQAGGSLRLSCVASGLTFSSYNMGWLRQAPGKEREFVGMSGSSSTSTYYADSVKGRFTISRDNSKNTVYLQMNSLKPEDTAVYYCAARRVLSTYWSDRSWDFWGQGTQVTVKPGGPSVFLFPPKPKDTLMISRTPEVTCVVVDVSHEDPEVKFNWYVDGVEVHNAKTKPREEQYNSTYRVVSVLTVLHQDWLNGKEYKCKVSNKALPAPIEKTISKAKGQPREPQVYTLPPSRDELTKNQVNLTCLVKGFYPSDIAVEWESNGQPENNYKTTPPVLDSDGSFFLNSTLTVDKSRWQQGNVFSCSVMHEALHNHYTQKSLSLSPGK |
